Results reported in paper PMC2908316 (2009).

B1: RGS4 (protein)
chain: MCKGLAGLPASCLRSAKDMKHRLGFLLQKSDSCEHNSSHNKKDKVVICQRVSQEEVKKWAESLENLISHECGLAAFKAFLKSEYSEENIDFWISCEEYKKIKSPSKLSPKAKKIYNEFISVQATKEVNLDSCTREETSRNMLEPTITCFDEAQKKIFNLMEKDSYRRFLKSRFYLDLVNPSSCGAEKQKGAKSSADCASLVPQCA
B2: RGS8 (protein)
chain: MAALLMPRRNKGMRTRLGCLSHKSDSCSDFTAILPDKPNRALKRLSTEEATRWADSFDVLLSHKYGVAAFRAFLKTEFSEENLEFWLACEEFKKTRSTAKLVSKAHRIFEEFVDVQAPREVNIDFQTREATRKNLQEPSLTCFDQAQGKVHSLMEKDSYPRFLRSKMYLDLLSQSQRRLS
B3: RGS16 (protein)
chain: MCRTLAAFPTTCLERAKEFKTRLGIFLHKSELGCDTGSTGKFEWGSKHSKENRNFSEDVLGWRESFDLLLSSKNGVAAFHAFLKTEFSEENLEFWLACEEFKKIRSATKLASRAHQIFEEFICSEAPKEVNIDHETHELTRMNLQTATATCFDAAQGKTRTLMEKDSYPRFLKSPAYRDLAAQASAASATLSSCSLDEPSHT
B4: RGS7 (protein)
chain: MAQGNNYGQTSNGVADESPNMLVYRKMEDVIARMQDEKNGIPIRTVKSFLSKIPSVFSGSDIVQWLIKNLTIEDPVEALHLGTLMAAHGYFFPISDHVLTLKDDGTFYRFQTPYFWPSNCWEPENTDYAVYLCKRTMQNKARLELADYEAESLARLQRAFARKWEFIFMQAEAQAKVDKKRDKIERKILDSQERAFWDVHRPVPGCVNTTEVDIKKSSRMRNPHKTRKSVYGLQNDIRSHSPTHTPTPETKPPTEDELQQQIKYWQIQLDRHRLKMSKVADSLLSYTEQYLEYDPFLLPPDPSNPWLSDDTTFWELEASKEPSQQRVKRWGFGMDEALKDPVGREQFLKFLESEFSSENLRFWLAVEDLKKRPIKEVPSRVQEIWQEFLAPGAPSAINLDSKSYDKTTQNVKEPGRYTFEDAQEHIYKLMKSDSYPRFIRSSAYQELLQAKKKSGNSMDRRTSFEKFAQNVGRNIPIFPCHKNCTPTLRASTNLL

Molecular target: Gαo (Homo sapiens, UniProt P09471)
Sequence (P09471 2-354): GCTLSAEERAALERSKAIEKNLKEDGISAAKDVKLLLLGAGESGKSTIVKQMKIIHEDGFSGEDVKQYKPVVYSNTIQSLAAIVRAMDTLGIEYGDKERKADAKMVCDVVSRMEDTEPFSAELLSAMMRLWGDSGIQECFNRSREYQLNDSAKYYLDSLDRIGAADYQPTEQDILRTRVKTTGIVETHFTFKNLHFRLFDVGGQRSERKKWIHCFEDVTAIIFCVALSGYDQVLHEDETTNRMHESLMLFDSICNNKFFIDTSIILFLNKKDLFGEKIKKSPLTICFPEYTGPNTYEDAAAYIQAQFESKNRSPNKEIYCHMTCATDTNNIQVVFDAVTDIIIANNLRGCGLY
Test: flow cytometry protein interaction assay

| Kd | Binder |
| --- | --- |
| < 100 nM | B1 |
| < 100 nM | B2 |
| < 100 nM | B3 |
| < 100 nM | B4 |
